The values that follow come from US11242370B2, “Neuregulin-4 compounds and methods of use” (Eli Lilly and Company, priority 2019, dated 2022).

Residue numbers refer to the chain shown, from its start. In names and notes the source's numbering stands.

The target of this assay is T1, human HER2 and HER4 (Homo sapiens, UniProt Q15303).
T1 construct: expressed in transfected cells
Put plainly: Screening by human HER2-HER4 mediated ERK 1/2 phosphorylation in CHO-hHER2-hHER4 (clone 1H6) cells. The assay is classed as cell-based. Particulars: Fc variants as 293F supernatants. How it is done:
A cell based assay utilizing CHO-K1 cells overexpressing human or rat HER receptors is used to determine activity of NRG4 compounds. CHO-K1 cells (ATCC) are grown in DMEM-F12 3:1 with 5% FBS with 20 mM HEPES, 40 μg/mL L-Proline, lx antibiotics and were split 1:5 every 2-3 days with TripLE Express (Gibco). Cells are transfected with plasmid DNA encoding HER receptors in pairs (hHER2-3, hHER2-4, rHER2-3 and rHER2-4) with Fugene 6 (Promega) according to the manufacturer's instructions. […] Transfected cells are selected with Puromycin (12 ug/ml) and Hygromycin (1 mg/ml) for 3-4 weeks and clonal lines are obtained by limited dilution cloning into 96 well plates. Clonal lines are selected by appropriate gene expression of HER2, HER3 or HER4 by Taqman method. Lines with appropriate receptor expression are confirmed by NRG1 induced phospho-ERK 1/2 responses. Clones are grown up, harvested, aliquoted into cryovials and then frozen under liquid nitrogen for long-term storage.
A phospho-ERK1/2 activity assay is used to determine potencies of NRG4 compounds. The potency of Examples 1-8 and 10 as compared to WT human NRG1 and/or human NRG4 are analyzed in studies measuring stimulation of human HER2-HER4 mediated ERK 1/2 phosphorylation. This assay comprises a CHO-K1 stable line expressing human HER2 and HER4. CHO-hHER2-hHER4 (clone 1H6) cells are routinely cultured in DMEM: F12(3:1), 5% FBS, 40 μg/mL L-Proline, 10 μg/mL puromycin and 1 mg/mL hygromycin at 37° C., 5% CO2. Cells are washed twice with 1×PBS, dissociated with 0.05% trypsin/[…] EDTA and collected by centrifugation at 300×g for 10 m. Cells are re-suspended in maintenance media. 20,000 cells/well, in 30 μL, are seeded into 384 well Poly-D-Lysine cell culture plates (Greiner, Cat No. 781946). Plates are covered with a manufacturer's lid and moved to a 37° C. tissue culture incubator at 5% CO^2, 80%+ humidity and allowed to adhere. After 24 h, media are removed from the plates and replaced with 30 μL serum-free starvation media (Low glucose DMEM with 0.1% BSA) using a Biomek FX liquid handler. Plates are returned to the incubator for 24 h.
hFcNRG4 variants, transiently expressed as 293F supernatants, are prepared in starvation media in a clear 384W plate (Greiner, cat no. 781185) as a 4pt 1:8 serial dilution (dose range averaged between 250 pM to 140000 pM). Media are removed from the cell culture plates and the 30 uL/well prepared variants are stamped into the plates using a Biomek FX liquid handler. Plates are sealed with a foil seal and stimulated for 15 minutes at room temperature on an orbital shaker. Cells are then washed once with 50 uL cold PBS. 30 uL lysis buffer is added to the cells and oscillated for 10 m at RT on an orbital shaker.
Detection of phosphorylation of ERR 1/2 is performed with either an AlphaScreen SureFire phospho-ERK1/2 kit (T202/Y204) (Perkin Elmer, catalog no. TGRES) or an AlphaLISA® SureFire® Ultra™ p ERK1/2 assay kit together with the AlphaScreen Protein. A IgG Detection Kit (Protein-A) (PerkinElmer, catalogue no. 6760617). After lysis of the CHO-K1 cells. 4 μL lysate is transferred to a 384W Alpha Proxiplate (Perkin Elmer, cat no, 6008280) with a 384W Biomek FX. 4 uL positive and negative lysates (Perkin Elmer, TGRES-L) are added to available wells as controls. 5 uL/well acceptor mix (containing anti-phoso-Thr202/Tyr204 antibodies and Protein A conjugated acceptor beads) is added to the plate with a Forumlatrix Mantis. The plate is sealed, spun down for 1 min at 300×g and incubated for 2 hr at room temperature on an orbital shaker. 2 μL/well donor mix (containing strepavidin coated donor beads and biotinylated antibodies to a distal ERK1/2 epitope) is dispensed by Mantis. The plate is sealed, spun down for 1 min at 300×g and incubated for 2 hr at room temperature on an orbital shaker before reading on the Perkin Elmer Envision 2103 Multilabel Reader (HIS Alpha mode, excitation time: 40 ms, total measurement time: 130 ms). […]

Take “WT NRG1: wild type human NRG1; native peptide purchased from Reprokine in Tables 7-9; comparator in the screening assays of Tables 4 and 6”: the EC50 (Table 6) was 0.319 nM. Consider “WT NRG4: wild type human NRG4 (SEQ ID NO:1); parental hFcNRG4 in screening (Tables 4-6), native peptide from Reprokine in Tables 7-9 (DHEEPCGPSHKSFCLNGGLCYVIPTIPSPFCRCVENYTGARCEEVFL; listed as Homo sapiens)”, for which the EC50 was found to be 2.53 nM (Table 5, Examples average of two replicates ± standard deviation) and 1.3 nM (Table 6).

B1: Example 10: NRG4 D1G/V22Q/E44K, (GGGGS)3 linker, SEQ ID NO: 19, fused to IgG Fc dimer SEQ ID NO: 6 and 7 (protein)
chain 1: GGGGSGGGGSGGGGSGHEEPCGPSHKSFCLNGGLCYQIPTIPSPFCRCVENYTGARCEKVFL
chain 2: ECPPCPAPPVAGPSVFLFPPKPKDTLMISRTPEVTCVVVDVSHEDPEVQFNWYVDGVEVHNAKTKPREEQFNSTFRVVSVLTVVHQDWLNGKEYKCKVSNKGLPAPIEKTISKTKGQPREPQVYTLPPSREEMTKNQVSLWCLVKGFYPSDIAVEWESNGQPENNYKTTPPVLDSDGSFFLYSKLTVDKSRWQQGNVFSCSVMHEALHNHYTQKSLSLSPG
chain 3: B1 chain 2 with W141S, L143A, Y182V
In turn, B1 yielded an EC50 (Table 6) of 0.245 nM.
